{
  "source": "paper PMC8310559",
  "note": "pKd: −log10 of the molar value.",
  "data": [
    {"target": "ectodomain of SARS-CoV-2 S protein (a.a. 1-1208 (SARS-CoV-2) (UniProt P0DTC2))", "assay": "SPR", "values": [
      {"substance": "CR3022 IgG (antibody)", "pKd": 9.68},
      {"substance": "CR3022 scFv VLVH", "pKd": 7.56},
      {"substance": "CR3022 scFv VHVL", "pKd": 7.70},
      {"substance": "CR3022 Fab", "pKd": 7.34}
    ]}
  ]
}
